From patent US20060094649A1 come the findings set out here.

The target of one assay is HLA-B*4403 (human). The assay can be described thus: competition with labeled probe peptide, purified HLA class I.
The next assay concerns the target HLA-B*4001 (human). The description is as above.

As a reminder, the IC50 is the concentration that inhibits the measured activity by half. Consider “SEQ ID NO 717, 7-mer of MAGE2 at position 234 (printed as WEELSML) (peptide)”, for which the figures for the IC50 with HLA-B*4403 (human) and with HLA-B*4001 (human) were 2.01 µM and 10.4 µM, respectively.
